# Target: poly-L-proline (PLP) coupled to Sepharose 4B
# Experiment: affinity chromatography on poly-L-proline Sepharose
substance,measurement,value
"GST-δLdPfn (LdPfn with amino acids 110 to 128 deleted, N-terminal GST tag) (natural protein)",reduction of binding to PLP relative to GST-LdPfn,30%

# — doi:10.1101/2025.04.17.649292
